This note sets out measurements from PMC3791464 (eLife, 2013).

B1: GFP–Orc6 wild type (fly transgene) [Drosophila melanogaster] / Drosophila Orc2, endogenous in fly ovaries [Drosophila (endogenous in fly ovaries)] (parent)
chain 1: MTTLIEQLITKMGLREEPNVLEKTTELVRLLELRSTNVPLQINEYGKIVLCADLASCMIGIAFDKEQALKLSGLRKSQYLNNKRMFEKLLDLNKLASVNDICVQLGLNEVARKAEELMTLFKGVAATEDMGTDTSHPQYATMAVFQACRLLKKKVSKSKLMPFSNLRPSQFQLLEQQWERMIAKHHKESKVPSSTDMEGKLKENQNENIKGHEAKKAHKPPPEDYEIWKARMLAKAQAKLKELEASQSHMDSQLLEA
chain 2: MSASNKGGYKTPRKENLMSIENLTNSEEESEDLNTAMVGNAVESQPKVTSRRSTRRPSPTKKYQAYQKESNGKGQEERIVVNYVEMSDERSSDAEDQEEEESIEESENAARPAAKDLHLIQSEYNVAGTSMFGFNTPKKRDAMALAALNATPCTPKTPKTPRLGVKTPDTKRKKSMDQPKTPAHVRTRVKKQIAKIVADSDEDFSGDESDFRPSDEESSSSSSSSDAGNSSDNDAADDEPKTPSRARRAIVVPVLPKTPSAARLRQSARAKKSNEFVPESDGYFHSHASSKILTSDHTLDRLKNPRLAADRVFSLLSEIKTSAEHEGSINAIMEEYRSYFPKWMCILNEGFNILLYGLGSKHQLLQSFHREVLHKQTVLVVNGFFPSLTIKDMLDSITSDILDAGISPANPHEAVDMIEEEFALIPETHLFLIVHNLDGAMLRNVKAQAILSRLARIPNIHLLASIDHINTPLLWDQGKLCSFNFSWWDCTTMLPYTNETAFENSLLVQNSGELALSSMRSVFSSLTTNSRGIYMLIVKYQLKNKGNATYQGMPFRDLYSSCREAFLVSSDLALRAQLTEFLDHKLVKSKRSVDGSEQLTIPIDGALLQQFLEEQEKK

In this assay the parent is B1. The experiment in a line: GFP fluorescence of anti-Orc2 immunoprecipitates. The following applies: with Drosophila Orc2, endogenous in fly ovaries [Drosophila (endogenous in fly ovaries)]; fly ovary extracts; three independent experiments; read off a plot.
As to chain 1 W228A K229A, the response (arbitrary units) turned out to be 470. As to chain 1 D224A Y225A, the response (arbitrary units) turned out to be 550.
